From patent US20170298146A1 (MODIQUEST B V, published 2017)
Non-standard residues stand in square brackets, D forms with d. No end group written: not given here. Cit = NC(=O)NCCC[C@H](N)C(=O)O

Experiments:
CFC-1 [1] = biological target: T1, CFC-1; experiment: peptide ELISA, 10 ug/well
T1 construct: Positive control for anti-citrulline reactivity; also called cfc1 XG
Description: (§1) Biotin and citrulline-containing peptides derived from histone 2A were immobilized on NEUTRAVIDIN®-coated 96-well ELISA plates (0.3 μg/well). CFC-1 and CFC-0 were coated at the same concentration and served as positive and negative controls respectively for specific anti-citrulline reactivity and as coating controls. Non-coated wells were used to test for aspecific binding of the antibodies. […] Detection of bound anti-citrulline antibodies was performed by incubating the wells with rabbit-anti-human-HRP (1:2000) for one hour at RT followed by incubation with TMB substrate. The resulting OD (y-axis) is a measure for antibody binding.
(§2) Ninety-six-well ELISA plates were coated with NEUTRAVIDIN® (0.1 μg/well) by overnight incubation at 4° C. Wells were washed five times with PBS-TWEEN®-20 (PBS-T) and blocked by a one-hour incubation with PBS-T+1% Bovine serum albumin (BSA) at room temperature (RT). After five more washes with PBS-T, wells were incubated for one hour at RT with histone-derived citrulline and biotin-containing peptides (0.3 μg/well). […] Wells were washed five times with PBS-T and incubated with rabbit-anti-human-HRP (1:2000) for one hour at RT followed by five washes with PBS-T and three wash steps with PBS. Wells were incubated for five minutes with TMB substrate before stopping the reaction with 2 M H₂SO₄. Optical density was measured by 450 nm and is a measure for the affinity of the antibodies used.

[2] = biological target: T2, Histone 2A citrulline-containing peptide 1 (human, also: biotin label); experiment: peptide ELISA, 10 ug/well
T2 construct: also called AAASGXGKQGGK
T2 peptide: AAASG[Cit]GKQGGK
Description: as §1, §2

[3] = biological target: T3, Histone 2A citrulline-containing peptide 2 (human, also: biotin label); experiment: peptide ELISA, 10 ug/well
T3 peptide: AKAKS[Cit]SSRAGL
Description: as §1, §2

[4] = biological target: T4, Histone 2A citrulline-containing peptide 3 (human, also: biotin label); experiment: peptide ELISA, 10 ug/well
T4 peptide: KSRSS[Cit]AGLQFP
Description: as §1, §2

[5] = biological target: T5, Histone 2A citrulline-containing peptide 4 (human, also: biotin label); experiment: peptide ELISA, 10 ug/well
T5 peptide: QFPVG[Cit]VHRLLR
Description: as §1, §2

[6] = biological target: T6, Histone 2A citrulline-containing peptide 5 (human, also: biotin label); experiment: peptide ELISA, 10 ug/well
T6 peptide: VGRVH[Cit]LLRKGN
Description: as §1, §2

[7] = biological target: T7, Histone 2A citrulline-containing peptide 6 (human, also: biotin label); experiment: peptide ELISA, 10 ug/well
T7 peptide: VHRLL[Cit]KGNYSE
Description: as §1, §2

[8] = biological target: T8, Histone 2A citrulline-containing peptide 7 (human, also: biotin label); experiment: peptide ELISA, 10 ug/well
T8 peptide: GNYSE[Cit]VGAGAP
Description: as §1, §2

[9] = biological target: T9, Histone 2A citrulline-containing peptide 8 (human, also: biotin label); experiment: peptide ELISA, 10 ug/well
T9 peptide: AGNAA[Cit]DNKKTR
Description: as §1, §2

[10] = biological target: T10, Histone 2A citrulline-containing peptide 9 (human, also: biotin label); experiment: peptide ELISA, 10 ug/well
T10 peptide: DNKKT[Cit]IIPRHL
Description: as §1, §2

[11] = biological target: T11, Histone 2A citrulline-containing peptide 10 (human, also: biotin label); experiment: peptide ELISA, 10 ug/well
T11 peptide: TRIIP[Cit]HLQLAI
Description: as §1, §2

[12] = biological target: T12, Histone 2A citrulline-containing peptide 11 (human, also: biotin label); experiment: peptide ELISA, 10 ug/well
T12 peptide: LQLAI[Cit]NDEELN
Description: as §1, §2

[13] = biological target: T13, Histone 2A citrulline-containing peptide 12 (human, also: biotin label); experiment: peptide ELISA, 10 ug/well
T13 peptide: NKLLG[Cit]VTIAQG
Description: as §1, §2

CFC-1 [14] = biological target: T1, CFC-1; experiment: peptide ELISA, 0.4 ug/well
Description: as §1, with “fibrinogen and vimentin” for “histone 2A”
(§3) Biotin-labeled and citrulline-containing fibrinogen and vimentin peptides (Table 5) were also tested for reactivity with the therapeutic antibodies. Peptides were coated on 96-well NEUTRAVIDIN®-ELISA plates.

msFibα XH = biological target: T14, msFibα XH (mouse, X at position 15 is citrulline; biotin label); experiment: peptide ELISA, 0.4 ug/well
T14 peptide: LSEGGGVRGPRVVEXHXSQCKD
Description: as §1, with “fibrinogen and vimentin” for “histone 2A”
as §3

msFibα XG = biological target: T15, msFibα XG (mouse, X at position 8 is citrulline; biotin label); experiment: peptide ELISA, 0.4 ug/well
T15 peptide: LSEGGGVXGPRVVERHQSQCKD
Description: as §1, with “fibrinogen and vimentin” for “histone 2A”
as §3

huFibα XH = biological target: T16, huFibα XH (human, X at position 15 is citrulline; biotin label); experiment: peptide ELISA, 0.4 ug/well
T16 peptide: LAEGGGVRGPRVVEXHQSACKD
Description: as §1, with “fibrinogen and vimentin” for “histone 2A”
as §3

huFibα XG = biological target: T17, huFibα XG (human, X at position 8 is citrulline; biotin label); experiment: peptide ELISA, 0.4 ug/well
T17 peptide: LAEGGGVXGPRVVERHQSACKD
Description: as §1, with “fibrinogen and vimentin” for “histone 2A”
as §3

msFibβ XG [15] = biological target: T18, msFibβ XG (mouse, also: biotin label); experiment: peptide ELISA, 0.4 ug/well
T18 peptide: EPTDSLDA[Cit]GHRPVDRR
Description: as §1, with “fibrinogen and vimentin” for “histone 2A”
as §3

msVim XS/XL [16] = biological target: T19, msVim XS/XL (mouse, also: biotin label); experiment: peptide ELISA, 0.4 ug/well
T19 construct: also called mouse vimentin peptide
T19 peptide: YVT[Cit]SSAV[Cit]L[Cit]SSVP
Description: as §1, with “fibrinogen and vimentin” for “histone 2A”
as §3

CFC-1 [17] = biological target: T1, CFC-1; experiment: peptide ELISA, 0.016 ug/well
Description: as §1, §2

[18] = biological target: T4, Histone 2A citrulline-containing …; experiment: peptide ELISA, 0.016 ug/well
Description: as §1, §2

[19] = biological target: T9, Histone 2A citrulline-containing …; experiment: peptide ELISA, 0.016 ug/well
Description: as §1, §2

[20] = biological target: T13, Histone 2A citrulline-containing …; experiment: peptide ELISA, 0.016 ug/well
Description: as §1, §2

msFibβ XG [21] = biological target: T18, msFibβ XG; experiment: peptide ELISA, 0.016 ug/well
Description: as §1, with “fibrinogen and vimentin” for “histone 2A”
as §3

msVim XS/XL [22] = biological target: T19, msVim XS/XL; experiment: peptide ELISA, 0.016 ug/well
Description: as §1, with “fibrinogen and vimentin” for “histone 2A”
as §3

B1: RhmAb2.102 (antibody, human IgG1, lambda)
heavy: not shown
light: QSVLTQPPSMSAAPGQKVTISCSGSSSNIGNNYVSWYQQVPGTAPKLLIYDDNKRPSGIPGRFSGSKSATSATLGITGLQAGDEADYYCGSWDDNLSVVLFGGGTKLTVLGQPKAAPSVTLFPPSSEELQANKATLVCLISDFYPGAVTVAWKADSSPVKAGVETTTPSKQSNNKYAASSYLSLTPEQWKSHRSYSCQVTHEGSTVEKTVAPTECS
notes: Human IgG1 lambda; also called Rhm2.102
OD (CFC-1 [1]): 3.27 OD | OD [2]: 3.11 OD | OD [3]: 0.552 OD | OD [4]: 0.619 OD | OD [5]: 2.06 OD | OD [6]: 0.239 OD | OD [7]: 1.41 OD | OD [8]: 0.08 OD | OD [9]: 0.082 OD | OD [10]: 0.09 OD | OD [11]: 0.091 OD | OD [12]: 0.088 OD | OD [13]: 0.083 OD | OD (CFC-1 [14]): 3.79 OD | OD (msFibα XH): 0.076 OD | OD (msFibα XG): 0.773 OD | OD (huFibα XH): 0.09 OD | OD (huFibα XG): 0.521 OD | OD (msFibβ XG [15]): 1.67 OD | OD (msVim XS/XL [16]): 1.45 OD | OD (CFC-1 [17]): 1.46 OD | OD [18]: 0.07 OD | OD [19]: 0.063 OD | OD [20]: 0.057 OD | OD (msFibβ XG [21]): 0.174 OD | OD (msVim XS/XL [22]): 0.201 OD
